According to the supplement of paper PMC9233669:
Variants at the floor of the assay were thinned out.

Assays:
biotinyl-Trp-oxazolone = test: self-aminoacylation, catalytic enhancement (BWO) (fold over background); higher = more active; k-Seq, kA / k0A0; sequences stand for … in GGGAAUGGAUCCACAUCUACGAAUUC…UUCACUGCAGACUUGACGAAGCUG
Method in brief: (§1)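 Mutagenized RNA pools with a 21-nt variable region (0.43 μM) were reacted with each biotinyl-aminoacyl-oxazolone at 2–1250 μM for 90 minutes at room temperature, in 50 μL HEPES/NaCl/KCl/MgCl2/CaCl2 buffer containing 5% acetonitrile at pH 6.9–7.0. RNA captured on streptavidin was quantified by triplicate qPCR and by Illumina sequencing. The fraction reacted for each sequence was fit to a pseudo-first-order model with bootstrapping, and catalytic enhancement is the median kA divided by the uncatalyzed rate, taken as the low-activity peak of a bimodal Gaussian fit.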

biotinyl-Ile-oxazolone = test: self-aminoacylation, catalytic enhancement (BIO) (fold over background); higher = more active; k-Seq, kA / k0A0; sequences stand for … in GGGAAUGGAUCCACAUCUACGAAUUC…UUCACUGCAGACUUGACGAAGCUG
Method in brief: as §1

biotinyl-Leu-oxazolone = test: self-aminoacylation, catalytic enhancement (BLO) (fold over background); higher = more active; k-Seq, kA / k0A0; sequences stand for … in GGGAAUGGAUCCACAUCUACGAAUUC…UUCACUGCAGACUUGACGAAGCUG
Method in brief: as §1

biotinyl-Val-oxazolone = test: self-aminoacylation, catalytic enhancement (BVO) (fold over background); higher = more active; k-Seq, kA / k0A0; sequences stand for … in GGGAAUGGAUCCACAUCUACGAAUUC…UUCACUGCAGACUUGACGAAGCUG
Method in brief: as §1

biotinyl-Met-oxazolone = test: self-aminoacylation, catalytic enhancement (BMO) (fold over background); higher = more active; k-Seq, kA / k0A0; sequences stand for … in GGGAAUGGAUCCACAUCUACGAAUUC…UUCACUGCAGACUUGACGAAGCUG
Method in brief: as §1

biotinyl-Phe-oxazolone = test: self-aminoacylation, catalytic enhancement (BFO) (fold over background); higher = more active; k-Seq, kA / k0A0; sequences stand for … in GGGAAUGGAUCCACAUCUACGAAUUC…UUCACUGCAGACUUGACGAAGCUG
Method in brief: as §1

Row | Sequence | self-aminoacylation (biotinyl-Trp-oxazolone) | self-aminoacylation (biotinyl-Ile-oxazolone) | self-aminoacylation (biotinyl-Leu-oxazolone) | self-aminoacylation (biotinyl-Val-oxazolone) | self-aminoacylation (biotinyl-Met-oxazolone) | self-aminoacylation (biotinyl-Phe-oxazolone)
1 | CCACUCUUCAAGCAAUGGGUC [Fam1B.1 aminoacylation ribozyme variant] | 0.647 | 0.877 | 0.911 | 0.859 | 0.953 | 0.667
2 | AUUCCCCUUGUCAUCGAGUGA [Fam2.1 aminoacylation ribozyme variant] | 14.9 | 6.44 | 11.4 | 7.45 | 11.1 | 70.6
3 | AUUCACCUAGGACAUCUGGUG [Fam2.2 aminoacylation ribozyme variant] | 2.13 | 2.02 | 2.13 | 1.72 | 2.13 | 8.71
4 | AAGUUCGCUAAUCGUCGCAAG [Fam3.1 aminoacylation ribozyme variant] | 2.55 | 1.6 | 1.05 | 1.48 | 1.25 | 6.17
5 | AACUUUGUUAAUAGUCGCAAG [Fam3.1 aminoacylation ribozyme variant] | 2.76 | 2.29 | 2.47 | 2.06 | 2.26 | 3.96
6 | AAUUCUGCUAAUAGUCGCAAG [Fam3.1 aminoacylation ribozyme variant] | 4.46 | 1.88 | 1.61 | 1.56 | 1.81 | 12.7
7 | CCACACUUCAAACAAUCAGUC [Fam1B.1 aminoacylation ribozyme variant] | 12.4 | 0.947 | 1.16 | 1.06 | 0.771 | 42.2
8 | AUUACCCUGGUCAUCGAGUCG [Fam2.1 aminoacylation ribozyme variant] | 0.725 | 0.765 | 0.794 | 0.976 | 0.797 | 0.759
9 | AUUAACCUGAUCAUCGAGUGA [Fam2.1 aminoacylation ribozyme variant] | 13.7 | 4.54 | 10.2 | 4.67 | 9.97 | 41.3
10 | AUUCACCUAGCUCAUCCGGUG [Fam2.2 aminoacylation ribozyme variant] | 3.68 | 2.45 | 3.7 | 2.51 | 3.18 | 16.5
11 | AUUCCCCUGGUCAUCGAGAGA [Fam2.1 aminoacylation ribozyme variant] | 1.96 | 1.46 | 1.17 | 1.47 | 1.68 | 3.27
12 | AUUCACCUAGGUCUUCGGCUG [Fam2.2 aminoacylation ribozyme variant] | 1.46 | 2.12 | 2.59 | 1.87 | 1.8 | 6.94
13 | AUUACCCUGGUCGCCGAGUGA [Fam2.1 aminoacylation ribozyme variant] | 4.48 | 3.48 | 5.59 | 2.58 | 4.14 | 22.8
14 | CUACUUCAAAGUAUCGGUCUG [Fam1A.1 aminoacylation ribozyme variant] | 0.979 | 0.979 | 0.941 | 0.975 | 0.824 | 1.44
15 | ACUACCCUGGUCAUCGAGUAA [Fam2.1 aminoacylation ribozyme variant] | 8 | 3.33 | 8.99 | 3.99 | 9.42 | 20.1
16 | AAGUUUGCUGCUAGUCGCAAG [Fam3.1 aminoacylation ribozyme variant] | 1.19 | 1.21 | 1.3 | 1.31 | 1.57 | 2.64
17 | CUACUUUAAACAAUCGGGCUG [Fam1A.1 aminoacylation ribozyme variant] | 0.746 | 1.2 | 1.07 | 1.06 | 1.25 | 0.648
18 | CAACUUCUAACAAUCGGUCUG [Fam1A.1 aminoacylation ribozyme variant] | 1.05 | 0.904 | 0.743 | 0.917 | 0.722 | 1.44
19 | AAGUUUGCUAAUAGUCCCACG [Fam3.1 aminoacylation ribozyme variant] | 0.714 | 0.727 | 0.838 | 0.679 | 0.931 | 0.69
20 | CUACUUCAAACAAUCGGUAUC [Fam1A.1 aminoacylation ribozyme variant] | 0.994 | 0.635 | 0.554 | 0.594 | 0.541 | 2.2
21 | AUGCACCUAAGUCAUCGGGUG [Fam2.2 aminoacylation ribozyme variant] | 8.67 | 5.66 | 10.5 | 4.84 | 8.76 | 58.2
22 | AAGUUUGCUAAUAGUCGCAUA [Fam3.1 aminoacylation ribozyme variant] | 1.23 | 1.21 | 0.954 | 1.22 | 0.936 | 1.58
23 | AUUACCCUGGUCCUCUAGUGA [Fam2.1 aminoacylation ribozyme variant] | 12.3 | 4.37 | 10.6 | 5.33 | 9.46 | 79.1
